According to patent publication US5654179A, “Nucleic acid preparation methods” (HRI Research, Inc., priority 1994, dated 1997):

What was measured:
Taq polymerase [1] = experiment: Mode III whole blood, globin PCR (KM-29/HRI-12) with inhibitor treatment; assay type: biochemical; settings: 250 μg bovine transferrin, 10 mM sodium bicarbonate; 25,000 to 0 cells; no product without treatment
Experimental: Generally, PCR was carried out using 175-200 μM dNTPS (deoxyribonucleoside 5'-triphosphates) and 0.5 to 1.0 μM primers. Five units/100 μl of Taq polymerase were used. PCR reactions were overlaid with 30-100 μl light mineral oil. A typical PCR cycle for HIV amplification using a Perkin-Elmer Cetus DNA Thermal Cycler (Part No. N8010150) was: denaturation at 95° C. for 30 seconds; annealing at 55° C. for 30 seconds; and extension at 72° C. for 1 minute. PCR cycles were normally carried out in this manner for 35 cycles followed by 7 minutes at 72° C.
In one case, amplification of globin sequences was performed using primer pair KM-29 (SEQ ID NO:10)and HRI-12 (SEQ ID NO:11) to give a 174 bp product within the human beta globin gene.
Whole blood samples were lysed with protease K (500 μg/ml, 55° C. for 1 hour). The enzyme was inactivated by heating (95°-100°C., 10 minutes). Aliquots corresponding to 25,000, 10,000, 5,000, 2,000, 1000, 500 and 0 cells were made. Bovine transferrin (250 μg) was added to each sample as well as the cofactor sodium bicarbonate (adjusted to 10 mM) and the reaction was incubated at room temperature for 30 minutes. Concentrated PCR reagents were then added to each sample to a final volume of 100 μl. […]

Taq polymerase [2] = experiment: HIV PCR after inhibitor treatment of whole blood lysate; assay type: biochemical; settings: with cofactor sodium bicarbonate
Experimental: The enzyme was inactivated by heating (95°-100° C., 10 minutes).

| Molecule | globin PCR product after inhibitor treatment (Taq polymerase [1]) | activity as interfering reagent (Taq polymerase [2]) |
| --- | --- | --- |
| Bovine Transferrin: bovine transferrin (protein, UniProt Q29443 20-704, looked up) Serotransferrin: DPERTVRWCTISTHEANKCASFRENVLRILESGPFVSCVKKTSHMDCIKAISNNEADAVTLDGGLVYEAGLKPNNLKPVVAEFHGTKDNPQTHYYAVAVVKKDTDFKLNELRGKKSCHTGLGRSAGWNIPMAKLYKELPDPQESIQRAAANFFSASCVPCADQSSFPKLCQLCAGKGTDKCACSNHEPYFGYSGAFKCLMEGAGDVAFVKHSTVFDNLPNPEDRKNYELLCGDNTRKSVDDYQECYLAMVPSHAVVARTVGGKEDVIWELLNHAQEHFGKDKPDNFQLFQSPHGKDLLFKDSADGFLKIPSKMDFELYLGYEYVTALQNLRESKPPDSSKDECMVKWCAIGHQERTKCDRWSGFSGGAIECETAENTEECIAKIMKGEADAMSLDGGYLYIAGKCGLVPVLAENYKTEGESCKNTPEKGYLAVAVVKTSDANINWNNLKDKKSCHTAVDRTAGWNIPMGLLYSKINNCKFDEFFSAGCAPGSPRNSSLCALCIGSEKGTGKECVPNSNERYYGYTGAFRCLVEKGDVAFVKDQTVIQNTDGNNNEAWAKNLKKENFEVLCKDGTRKPVTDAENCHLARGPNHAVVSRKDKATCVEKILNKQQDDFGKSVTDCTSNFCLFQSNSKDLLFRDDTKCLASIAKKTYDSYLGDDYVRAMTNLRQCSTSKLLEACTFHKP | decreasing product band corresponding to the decreasing amount of cells | – |
| rat transferrin: transferrin from rat (protein, UniProt P12346 20-698, looked up) Serotransferrin: VPDKTVKWCAVSEHENTKCISFRDHMKTVLPADGPRLACVKKTSYQDCIKAISGGEADAITLDGGWVYDAGLTPNNLKPVAAEFYGSLEHPQTHYLAVAVVKKGTDFQLNQLQGKKSCHTGLGRSAGWIIPIGLLFCNLPEPRKPLEKAVASFFSGSCVPCADPVAFPQLCQLCPGCGCSPTQPFFGYVGAFKCLRDGGGDVAFVKHTTIFEVLPQKADRDQYELLCLDNTRKPVDQYEDCYLARIPSHAVVARNGDGKEDLIWEILKVAQEHFGKGKSKDFQLFGSPLGKDLLFKDSAFGLLRVPPRMDYRLYLGHSYVTAIRNQREGVCPEGSIDSAPVKWCALSHQERAKCDEWSVSSNGQIECESAESTEDCIDKIVNGEADAMSLDGGHAYIAGQCGLVPVMAENYDISSCTNPQSDVFPKGYYAVAVVKASDSSINWNNLKGKKSCHTGVDRTAGWNIPMGLLFSRINHCKFDEFFSQGCAPGYKKNSTLCDLCIGPAKCAPNNREGYNGYTGAFQCLVEKGDVAFVKHQTVLENTNGKNTAAWAKDLKQEDFQLLCPDGTKKPVTEFATCHLAQAPNHVVVSRKEKAARVSTVLTAQKDLFWKGDKDCTGNFCLFRSSTKDLLFRDDTKCLTKLPEGTTYEEYLGAEYLQAVGNIRKCSTSRLLEACTFHKS | – | does not work as an interfering reagent |
